Data as given in patent US8629106B2, “Affinity peptides toward BMP-2” (Janssen Biotech, Inc., priority 2010, dated 2014).
No end group written: not given here.

Columns and labels:
[1] = molecular target: T1, biotinylated BMP-2 (Homo sapiens, UniProt P12643); test: Amplified luminescent proximity homogenous assay (ALPHA); assay type: binding; conditions: chemically synthesized peptides, FIG. 6, normalized to molar concentration
T1 construct: purchased R&D Systems 355-BM/CF
T1 sequence (P12643 283-396): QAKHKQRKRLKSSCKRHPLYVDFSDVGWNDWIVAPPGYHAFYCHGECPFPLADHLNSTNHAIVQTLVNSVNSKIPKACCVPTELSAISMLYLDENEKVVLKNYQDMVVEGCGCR
Experimental: Concentration dependent binding efficiency of BMP-2 to the affinity peptides was evaluated using an ALPHA assay.
Diluted stock of biotinylated BMP-2 (R&D Systems, Minneapolis, Minn., Item number 355-BM/CF) at 3.3 micrograms/ml was prepared in 2× assay buffer (PBS, 0.01% Tween-80, 0.05% BSA). Chemically synthesized peptides having SEQ ID NO: 1, SEQ ID NO: 2, SEQ ID NO: 3, and SEQ ID NO: 6 were prepared using standard, automated Fluorenylmethyloxycarbonyl (Fmoc) solid phase peptide synthesis procedures. Each peptide solution for the assay was prepared from a 100 microgram/mL stock solution. The stock solution was serially diluted in ½ log steps in assay buffer resulting in peptide concentrations of 100, 33.3, 11.1, 3.70, 1.23, 0.41, 0.14, 0.046, 0.015, 0.0051, 0.0017 and 0.00056 micrograms/mL. Subsequently, serially diluted peptides were added to the corresponding wells containing the 10 microliters of the 3.3 microgram/mL solution of biotinylated BMP-2. Final assay test concentration for biotinylated BMP-2 was 0.825 micrograms/mL. Final peptide concentrations were 25, 8.3, 2.8, 0.93, 0.31, 0.10, 0.03, 0.01, 0.003, 0.001, 0.0003 and 0.0001 micrograms/mL. Next, Nickel (Ni)-acceptor and streptavidin (SA)-donor beads (Perkin Elmer, Waltham, Mass., Item number 6760619M) were diluted 1:100 in assay buffer prior to adding 20 microliters to each test well. Controls included BMP-2 alone in three different concentrations as well as SA beads with no peptide. The plate was made light-safe with an aluminum seal and shaken for 45 minutes on a table-top shaker at room temperature. The emission of the plate was read using a dual wavelength fluorometer (Perkin Elmer (Waltham, Mass.) Envision 2101 Multilabel Reader).
The ALPHA data in FIG. 6 was normalized to molar concentration based on the molecular weights of the peptide sequences.

[2] = system: MCHT-1/26 cells (mouse osteoblast cell line); test: Alkaline phosphatase bioactivity assay in the presence of BMP-2; assay type: cell-based; conditions: peptide at 16, 160 and 800 nM, BMP-2 0-1000 ng/ml, 3 days, FIG. 7
Experimental: In this experiment, we determined if the affinity peptides would interfere with the cell surface receptor binding to BMP-2 using mouse osteoblasts. The alkaline phosphatase (ALP) production was monitored the presence of BMP-2 with and without affinity peptides.
Passage two MCHT-1/26 cells (mouse osteoblast cell line) were plated out in a 96 well plate the night before at 4500 cells/well. Cells were stimulated with serial dilution of BMP-2 in a range 0-1000 ng/ml in the presence or absence of 3 dilutions of peptide SEQ ID NO: 6 at 16, 160 and 800 nM. After incubation at 37° C. for 3 days, cells were lysed with lysis buffer (250 mM NaCl, 25 mM MgCl2 and 100 mM Tris, pH=8.0) overnight at 37° C. One third of the lysate was used for alkaline phosphatase assay with p-nitrophenylphosphate. The reaction was carried out at 37° C. for one to two hours. Next, the plate was read on an absorbance plate reader at a wavelength of 405 nm.

[3] = molecular target: T2, BMP-2 (Homo sapiens, UniProt P12643); test: Mutant phage ELISA (serine scan); assay type: binding; conditions: FIG. 11A, FIG. 11B
T2 construct: purchased R&D Systems 355-BM/CF
T2 sequence (P12643 283-396): T1 sequence (P12643 283-396)
Text: Mutants of SEQ ID NO: 3 and SEQ ID NO: 6 were constructed by performing a serine scan where residues of the wild type were substituted with serine. […] SEQ ID NO: 24 through SEQ ID NO: 28 are mutants of SEQ ID NO: 3. SEQ ID NO: 29 through SEQ ID NO: 32 are mutants of SEQ ID NO: 6.
The respective custom oligonucleotide was obtained from Integrated DNA Technologies. The oligonucletides were inserted into the pIX gene using standard protocols. First, the oligonucletides were phosphorylated using T4 polynucleotide kinase. Next, the phosphorylated oligonucletides were annealed to the ssDNA template. Using the Kunkel method, the annealed DNA was ligated using T4 DNA ligase and T7 DNA polymerase. The resultant DNA was isolated using isopropanol precipitation and a gel was run to confirm the reaction. Lastly, electro-competent E. coli cells were transformed with the purified DNA and were plated out onto 2xYT/Tet/Xgal agar plates and allowed to grow overnight to isolate single colonies. An aliquot of the transformed cells was allowed to grow overnight at 37° C. while shaking in 50 mL 2xYT/tet media. The phage were then PEG precipitated following the procedure in Example 1. A phage titration was performed to determine the concentration of phage for the ELISA assay as described in Example 2. ELISA assays were performed following the procedure in Example 3.

[4] = system: hIgG; test: Cross-reactivity phage ELISA assay toward hIgG; assay type: binding, human; conditions: relative luminescence, N=2
Experimental: (§1) In this experiment, we are confirming the binding of the phage identified in Example 1 to BMP-2.
(§2) 96-well black ELISA plates were coated with streptavidin (Rows A through D), hIgG (Rows E and F) and human serum albumin (Rows G and H), at a concentration of 5 micrograms/mL in PBS. Plates were incubated overnight at 4° C. Plates were washed 3 times with TBST using a plate washer. To the streptavidin-coated wells in rows C and D, 100 microliters of a 4 micrograms/mL solution of biotinylated-BMP-2 (R&D Systems, Minneapolis, Minn., Item number 355-BM/CF), was introduced and allowed to sit at room temperature for 30 minutes. To all other wells, 100 microliters of PBS was introduced. The plates were again washed 3 times with TBST using the plate washer. The wells were then blocked with 250 microliters of a 3% dehydrated milk suspension in TBST and allowed to sit at room temperature for a minimum of 1 hour. Using phage concentrations determined by the phage titrations, dilutions of the phage stock solutions were performed in a separate 96-well plate to result in phage concentrations of 10^10, 10^9, 10^8, 10^7, 10^6 and 10^5 phage/well. […] The luminescence was read using a luminometer set with a gain of 150.
(§3) The phage ELISA data in FIG. 3, FIG. 4 and FIG. 5 show relative luminescence and have an N value of 2. […]

[5] = molecular target: human serum albumin (HSA) (Homo sapiens, UniProt P02768); test: Cross-reactivity phage ELISA assay toward human serum albumin; assay type: binding; conditions: relative luminescence, N=2
Experimental: as §1, §2, §3

AGYTSFALLKSAESTLP [SEQ ID NO: 3]
ranking according to concentration-dependent binding to BMP-2 [1]: SEQ ID NO: 6>SEQ ID NO: 3>SEQ ID NO: 2>SEQ ID NO: 1

AGRDSFNLLTSSPLPST [SEQ ID NO: 6]
ranking according to concentration-dependent binding to BMP-2 [1]: SEQ ID NO: 6>SEQ ID NO: 3>SEQ ID NO: 2>SEQ ID NO: 1
effect on the ALP production of mouse osteoblasts [2]: minimal effect

SEQ ID NO: 33: a fragment of SEQ ID NO: 3, shown in FIG. 12 (AGYTSFALLKS)
binding to BMP-2 in mutant phage ELISA [3]: important for binding to BMP-2

SEQ ID NO: 4: affinity peptide toward BMP-2 identified by pIX phage display, sequence in FIG. 1 (AGFRWWHTQPAHTLSYT)
cross-reactivity with hIgG [4]: binds to both hIgG and HSA
cross-reactivity with HSA [5]: binds to both hIgG and HSA

SEQ ID NO: 1: affinity peptide toward BMP-2 identified by pIX phage display, sequence in FIG. 1 (AGLPLQSMSRLSYDSLS)
ranking according to concentration-dependent binding to BMP-2 [1]: SEQ ID NO: 6>SEQ ID NO: 3>SEQ ID NO: 2>SEQ ID NO: 1

SEQ ID NO: 2: affinity peptide toward BMP-2 identified by pIX phage display, sequence in FIG. 1 (AGPPGPYIAASAFLALK)
ranking according to concentration-dependent binding to BMP-2 [1]: SEQ ID NO: 6>SEQ ID NO: 3>SEQ ID NO: 2>SEQ ID NO: 1

SEQ ID NO: 34: a fragment of SEQ ID NO: 6, shown in FIG. 12 (AGRDSFNLLTS)
binding to BMP-2 in mutant phage ELISA [3]: important for binding to BMP-2
